Results: the RNAGym collection of RNA variant scans (doi:10.1073/pnas.2313332121)
Variants at the floor of the assay were thinned out.

B1: TPR 5TU (parent)
chain: GGAUCUUCUCGAUCUAACAAAAAAGACAAAUCUGCCACAAAGCUUGAGAGCAUCUUCGGAUGCAGAGGCGGCAGCCUUCGGUGGCGCGAUAGCGCCAACGUUCUCAACUAUGACACGCAAAACGCGUGCUCCGUUGAAUGGAGUUUAUCAUG

Variants of: B1
Assay: polymerase ribozyme fitness, log enrichment relative to wild type (log ratio); higher = more active; in vitro selection for triplet polymerase activity
Outline: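 Streptavidin-bead capture of gel-excised extended constructs, followed by RT-PCR, closed a single triplicate in vitro selection round. That round began by annealing PCR-built, transcribed mutant libraries of each subunit of a heterodimeric triplet polymerase ribozyme with a biotinylated primer, the partner subunit and triplets, then incubating them frozen at −7 °C. After Illumina sequencing of inputs and outputs, genotypes needed ≥10 input reads and ≥1 read per output. Fitness is the base-2 logarithm of genotype enrichment over wild-type enrichment, using inverse-variance-weighted replicate averages.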

Row | Variant | polymerase ribozyme fitness (log ratio)
1 | GGAUCUUCUCGAUCUAACAAAAAAGACAAAUCUGCCACAAAGCUUGAGAGCAUCUUCGGAUGCAGAGGCGGCAGCCAUCGGUGGCGCGAUAGCGCGAACGUUCUCAACUAUGACACGCAAAACGCGUGCUCCGUUGAAUGUAGUUUAUCAUG [U77A C96G G141U] | ≤ -4.2
2 | GGAUCUUCUCGAUCUAACAAAAAAGACAAAUCUGCCACAAAGCUUGAGAGCAUCUUCGGAUGCAGAGGCGGCAGCUUUCGGUGUCGCGAUAGCGCCAACGUUCUCAACUAUGUCACGCAAAUCGCGUGCUCCGUUGAAUGGAGUUUAUCAUG [C76U G84U A113U A122U] | -3.77
3 | GGAUCUUCUCGAUCUAACAAAAAAGACAAAUCUGCCACAAAGCUUGAGAGCAUCUUCGGAUGCAGAGGCGGCAGCUUUCGGUCGCGCGAUAGCGCCAACGUUCUCAACUAUGACACGCAAAACGCGUGCUCCGAUGAAUGGUGUUUAUCAUG [C76U G83C U134A A142U] | ≤ -4.2
4 | GGAUCUUCUCGAUCUAACAAAAAAGACAAAUCUGCCACAAAGCUUGAGAGCAUCUUCGGAUGCAGAGGCGGCAGCUUUCGGUGGCGCGAUAGCGCCAACGUUCGCUACUAUGACACGCAAAACGCGUUCUCCGUUGAAUGGAGUUUAUCAGG [C76U U104G A106U G128U U151G] | ≤ -4.2
5 | GGAUCUUCUCGAUCUAACAAAAAAGACAAAUCUGCCACAAAGCUUGAGAGCAUCUUCGGAUGCAGAGGCGGCAGCUUUCGGUGGGGCGAUAGCGCCAACGUUCUCAACUAUGACACGCAAUACGCGUGCUCCGUUGAAUGGAGUUUACCAUG [C76U C85G A121U U148C] | -2.83
6 | GGAUCUUCUCGAUCUAACAAAAAAGACAAAUCUGCCACAAAGCUUGAGAGCAUCUUCGGAUGCAGAGGCGGCAGCCAUCGGUGGCGCGAUGGCACCAACGUUCUCAACUAUGACACGCAAAACGCGUGCUCCGUUGAAUGGAGUUUAUCAUG [U77A A91G G94A] | ≤ -4.2
7 | GGAUCUUCUCGAUCUAACAAAAAAGACAAAUCUGCCACAAAGCUUGAGAGCAUCUUCGGAUGCAGAGGCGGCAGCCCUCGAUGGCUCGAUAGCGCCAACAUUCUCAACUAUGACACGCAAAACGCGUGCUCCUUUGAAUGGAGUUUAUCAUG [U77C G81A G86U G100A G133U] | ≤ -4.2
8 | GGAUCUUCUCGAUCUAACAAAAAAGACAAAUCUGCCACAAAGCUUGAGAGCAUCUUCGGAUGCAGAGGCGGCAGCUGUCGGUGGCGCGAUAGCGCCAACGUUCUCAACUAUGACACGCAAAACGCGUGCUCCGUUGAAUGGAGUUUGUCAUG [C76U U77G A147G] | ≤ -4.2
9 | GGAUCUUCUCGAUCUAACAAAAAAGACAAAUCUGCCACAAAGCUUGAGAGCAUCUUCGGAUGCAGAGGCGGCAGCUUUCGGUGGCGCGAUAGCUCCAACGUUCUCAACUAUGACCCGCAAAACGUGUGCUCCGUUGAAUGGAGUUUUUCAUG [C76U G94U A115C C125U A147U] | ≤ -4.2
10 | GGAUCUUCUCGAUCUAACAAAAAAGACAAAUCUGCCACAAAGCUUGAGAGCAUCUUCGGAUGCAGAGGCGGCAGCUUUCGGUGGCGCGAUAGCGCCAACGGUCUCAACUAUGACACGCAAAACACGUGCUCCGUUGAAUGGAGUUUAUCAUG [C76U U101G G124A] | -0.411
11 | GGAUCUUCUCGAUCUAACAAAAAAGACAAAUCUGCCACAAAGCUUGAGAGCAUCUUCGGAUGCAGAGGCGGCAGCUUUCGGUGGCGCGAUAGCGCCAACGUGCUCAACUAUGACACGCAAAACGCGUGCUCCGUUGAAUGGAGUUUAUCAUG [C76U U102G] | -2.89
12 | GGAUCUUCUCGAUCUAACAAAAAAGACAAAUCUGCCACAAAGCUUGAGAGCAUCUUCGGAUGCAGAGGCGGCAGCCCUCGGUGGCGCGAUAGCGCCAACGUUCUCAACUAUGACACGCAAAACGCGUGCUCCGUUGAAUGGAUUUUAUCAUG [U77C G143U] | -4.09
13 | GGAUCUUCUCGAUCUAACAAAAAAGACAAAUCUGCCACAAAGCUUGAGAGCAUCUUCGGAUGCAGAGGCGGCAGCGUUCGGUGGCGCGAUAGCGCCAACGUUCUCAACUAUGACACGCAAAACGCGUGCUCCGUUGAAUGGAGAUUAUCAUG [C76G U144A] | ≤ -4.2
14 | GGAUCUUCUCGAUCUAACAAAAAAGACAAAUCUGCCACAAAGCUUGAGAGCAUCUUCGGAUGCAGAGGCGGCAGCCCUCGGUGGCGCGAUAGCGCCAACGUUCUCAACUAUGAUACGCAAAACGCGUGCUCCGUUGAAUGGAGUUUAUCAUG [U77C C114U] | ≤ -4.2
15 | GGAUCUUCUCGAUCUAACAAAAAAGACAAAUCUGCCACAAAGCUUGAGAGCAUCUUCGGAUGCAGAGGCGGCAGCUUUCGGUGGCGCGAUAGCGCCAACGUUCUCAACUAUGACACGCAAAACGCGUGCUCCGUUGAAUGGAGUUUUUCAUG [C76U A147U] | 0.639
16 | GGAUCUUCUCGAUCUAACAAAAAAGACAAAUCUGCCACAAAGCUUGAGAGCAUCUUCGGAUGCAGAGGCGGCAGCCAUCGGUGGCGCGAUAGCGCCAACGUUCUCAACUAUGUCACGCAAAACGCGUGCUCCGUUGAAUGGAGUUUAUCAUG [U77A A113U] | ≤ -4.2
17 | GGAUCUUCUCGAUCUAACAAAAAAGACAAAUCUGCCACAAAGCUUGAGAGCAUCUUCGGAUGCAGAGGCGGCAGCUUUCGGUGGGGCGAUAGCGCCAACGUUCUCAACUAUGACACGCAAAACGUGUGCUCCGUUGAAGGGAGUUUAUCAUG [C76U C85G C125U U139G] | ≤ -4.2
18 | GGAUCUUCUCGAUCUAACAAAAAAGACAAAUCUGCCACAAAGCUUGAGAGCAUCUUCGGAUGCAGAGGCGGCAGCUUUCGGUGGCGCGAUAGCGUUAACGUUCUCAACUAUGACACGCAAAACUCGUGCUCCGUUGAAUGGAGUUUAUCAUG [C76U C95U C96U G124U] | -1.17
19 | GGAUCUUCUCGAUCUAACAAAAAAGACAAAUCUGCCACAAAGCUUGAGAGCAUCUUCGGAUGCAGAGGCGGCAGCCCUCGGUGGCGCGAUAGCGCCAACGUUCUCAACUAAGACACGCAAAACGCGUGCUACGUUGAAUGGAGUUUAUCAUG [U77C U111A C131A] | ≤ -4.2
